From patent publication US9644017B2, “Insulin derivatives having an extremely delayed time-action profile” (Sanofi-Aventis Deutschland GmbH, priority 2008, dated 2017)

What was measured:
[1] = cited from earlier work
[2] = test system: healthy male normoglycemic Wistar rats; experiment: Blood glucose-lowering effect of novel insulin analogues in rats; assay type: in vivo, rat; settings: 9 nmol/kg s.c., n=8, up to eight hours, FIG. 1
Experimental: The blood glucose-lowering effect of selected novel insulin analogues is tested in healthy male normoglycemic Wistar rats. Male rats receive subcutaneous injection of a dose of 9 nmol/kg of an insulin analogue. Blood samples are taken from the animals immediately before the injection of the insulin analogue and at regular intervals up to eight hours after the injection, and the blood glucose content therein is determined.

Arg (A0), Gly (A21), Arg (B31), Arg (B32) human insulin [Compound 18 from Kohn et al.]
calculated pI ([1]; calculated): 7.58
experimentally determined pI ([1]; experimentally determined): 7.3

Gly (A21), Arg (B31), Arg (B32) human insulin [insulin glargine]
hypoglycemic effect / time-action profile in rats [2]: delayed action of insulin glargine cannot by contrast be unambiguously observed in rats
